Drawing on US20240156979A1, this text covers Kd for 1 substance.

The experiment has as its target Siglec-specific antibody for Siglec-9 (R&D Systems MAB1139). Put plainly: ForteBio Octet; construct captured on AHC biosensor, antibody titrated; 1:1 fit. For orientation: In BLI a coated tip is dipped into the sample, and binding shifts an interference pattern.

The substance Sig-9-Fc (Fc fusion) yielded a Kd of less than 0.01 µM.

In general, Kd refers to the free concentration of one partner at which half of the binding sites on the other are occupied at equilibrium, for simple one-to-one binding.
